Columns and labels:
[1] = target: T1, Anti-CD28 scFv (VH-linker 1-VL) (biotinylated (site not stated)); test: phage binding ELISA on captured biotinylated anti-CD28 scFv;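 also: crude clonal phage supernatants applied to the wells, bound phage read out with an HRP-conjugated anti-M13 antibody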
T1 construct: biotinylated and captured on neutravidin coated plates in the phage ELISA

[2] = target: T1, Anti-CD28 scFv (VH-linker 1-VL); test: phage binding ELISA on captured anti-CD28 scFv, wells pre-incubated with soluble CD28 (competitor);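 also: crude clonal phage supernatants added without washing, bound phage detected by HRP-conjugated anti-M13 antibody, control wells held blocking buffer alone instead of CD28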
Experimental: Clonal phage were harvested as crude supernatants and screened via standard enzyme linked immunosorbent assays (ELISAs). […] Prior to the addition of clonal phage, wells were incubated with blocking buffer and CD28 soluble protein or blocking buffer alone. Without washing or aspirating, clonal phage supernatants were then added to the wells and incubated for a short time. Wells were then washed followed by detection of bound phage using a horse radish peroxidase conjugated anti-M13 antibody.

[3] = target: T2, anti-CD28 scFv (VH-linker 1-VL) (biotinylated (site not stated)); test: phage ELISA; scFv wells pre-incubated with soluble CD28 (competitor);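 also: crude clonal phage supernatants added to wells pretreated with soluble CD28 in blocking buffer, bound phage read via HRP-linked anti-M13 antibody, reference wells got blocking buffer only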
T2 construct: Captured as biotinylated scFv on neutravidin coated plates in the phage ELISA
T2 sequence (scFv, as listed by the source): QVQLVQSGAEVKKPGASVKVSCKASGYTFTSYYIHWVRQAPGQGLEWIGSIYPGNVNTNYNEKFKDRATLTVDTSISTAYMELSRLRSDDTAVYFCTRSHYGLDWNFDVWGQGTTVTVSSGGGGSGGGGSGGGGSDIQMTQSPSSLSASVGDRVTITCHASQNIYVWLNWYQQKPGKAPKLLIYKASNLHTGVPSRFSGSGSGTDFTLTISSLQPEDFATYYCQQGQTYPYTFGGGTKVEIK

T1 sequence (scFv, as listed by the source): as above

## MDWCPTDLWHECFA [Phage-333]
[1]
  CD28 scFv signal: 2.07
[2]
  CD28 scFv signal in presence of CD28: 0.154

## MDWCPAYLWDECFA [Phage-325]
[1]
  CD28 scFv signal: 2.17
[2]
  CD28 scFv signal in presence of CD28: 0.163

## MDWCPSNMWNECFF [Phage-416]
[1]
  CD28 scFv signal: 0.983

## MDWCPRYLWNVCFA (on phage (pIII fusion)) [Phage-289 clonal phage peptide]
[3]
  CD28 scFv signal in presence of CD28: 0.28

## LHWCPTSMWTYCYY [Phage-392]
[2]
  CD28 scFv signal in presence of CD28: 2.46

## IDWCPRALWDACLA [Phage-332]
[1]
  CD28 scFv signal: 2.1
[2]
  CD28 scFv signal in presence of CD28: 0.164

## MHWCPRDLWHVCFN [Phage-327]
[1]
  CD28 scFv signal: 2.15
[2]
  CD28 scFv signal in presence of CD28: 0.15

## MDWCPRALWNVCFA [Phage-329]
[1]
  CD28 scFv signal: 2.14
[2]
  CD28 scFv signal in presence of CD28: 0.249

## MDWCPRFLWDVCFN [Phage-330]
[1]
  CD28 scFv signal: 2.14
[2]
  CD28 scFv signal in presence of CD28: 0.309

## MDWCPPHLWHECFF [Phage-358]
[1]
  CD28 scFv signal: 1.45

## MFWCPITLWNECFN [Phage-326]
[1]
  CD28 scFv signal: 2.15
[2]
  CD28 scFv signal in presence of CD28: 0.143

## MDWCPRHLWYECFS [Phage-324]
[1]
  CD28 scFv signal: 2.17
[2]
  CD28 scFv signal in presence of CD28: 0.163

## MDWCPRALWDHCFN [Phage-328]
[1]
  CD28 scFv signal: 2.15
[2]
  CD28 scFv signal in presence of CD28: 0.293

## VDWCPAHMWNECYN [Phage-419]
[1]
  CD28 scFv signal: 0.664

## MDWCPTYLWNVCFA [Phage-323]
[1]
  CD28 scFv signal: 2.21
[2]
  CD28 scFv signal in presence of CD28: 0.132

## IDWCPMHMWDFCYN [Phage-390]
[2]
  CD28 scFv signal in presence of CD28: 0.232

## MDWCPSDMWANCFF [Phage-389]
[2]
  CD28 scFv signal in presence of CD28: 0.316

## MDWCPRYLWDECFS [Phage-334]
[1]
  CD28 scFv signal: 2.06
[2]
  CD28 scFv signal in presence of CD28: 0.164

## MDWCPRHLWDECFN [Phage-341]
[1]
  CD28 scFv signal: 1.98
[2]
  CD28 scFv signal in presence of CD28: 0.268

## MDWCPRHLWDECFY [Phage-331]
[1]
  CD28 scFv signal: 2.13
[2]
  CD28 scFv signal in presence of CD28: 0.146

## MDWCPRHLWIECFN [Phage-322]
[1]
  CD28 scFv signal: 2.21
[2]
  CD28 scFv signal in presence of CD28: 0.376

## MDWCPRHLWLECFN [Phage-387]
[1]
  CD28 scFv signal: 0.066
[2]
  CD28 scFv signal in presence of CD28: 0.074

## MDWCPRYLWLECFN [Phage-354]
[1]
  CD28 scFv signal: 1.69
[2]
  CD28 scFv signal in presence of CD28: 0.368

## MDWCPRFLWDYCFA [Phage-335]
[1]
  CD28 scFv signal: 2.03
[2]
  CD28 scFv signal in presence of CD28: 0.207

Source: patent US20230357447A1 (JANUX THERAPEUTICS, published 2023)
